# Assay results reported in patent US20110178017A1 (PHASEBIO PHARMACEUTICALS, published 2011).
# T1: human Vasoactive Intestinal Peptide Receptor 1 (VPAC1) (human, UniProt P32241 31-457)
# T1 sequence (looked up): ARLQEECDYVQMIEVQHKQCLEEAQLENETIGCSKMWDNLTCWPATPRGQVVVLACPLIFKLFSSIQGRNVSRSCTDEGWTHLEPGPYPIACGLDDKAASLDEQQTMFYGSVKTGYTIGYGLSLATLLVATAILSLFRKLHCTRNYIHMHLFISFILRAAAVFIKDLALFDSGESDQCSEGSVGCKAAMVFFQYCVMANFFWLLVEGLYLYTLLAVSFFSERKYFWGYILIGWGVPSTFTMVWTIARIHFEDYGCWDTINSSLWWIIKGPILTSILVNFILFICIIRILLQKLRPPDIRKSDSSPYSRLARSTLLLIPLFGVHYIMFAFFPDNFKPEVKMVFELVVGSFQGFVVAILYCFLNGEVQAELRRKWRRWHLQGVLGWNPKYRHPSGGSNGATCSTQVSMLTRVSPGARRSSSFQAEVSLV
# Experiments:
# Assay in all cases: cell-based or functional assay
# [1] = target: human Vasoactive Intestinal Peptide Receptor 1 (VPAC1) (human) (UniProt P32241)
# [2] = target: human Vasoactive Intestinal Peptide Receptor 2 (VPAC2) (human) (UniProt P41587)
# [3] = target: T1, human Vasoactive Intestinal Peptide …
# human Vasoactive Intestinal Peptide Receptor 2 (VPAC2) (human), sequence (P41587 24-438): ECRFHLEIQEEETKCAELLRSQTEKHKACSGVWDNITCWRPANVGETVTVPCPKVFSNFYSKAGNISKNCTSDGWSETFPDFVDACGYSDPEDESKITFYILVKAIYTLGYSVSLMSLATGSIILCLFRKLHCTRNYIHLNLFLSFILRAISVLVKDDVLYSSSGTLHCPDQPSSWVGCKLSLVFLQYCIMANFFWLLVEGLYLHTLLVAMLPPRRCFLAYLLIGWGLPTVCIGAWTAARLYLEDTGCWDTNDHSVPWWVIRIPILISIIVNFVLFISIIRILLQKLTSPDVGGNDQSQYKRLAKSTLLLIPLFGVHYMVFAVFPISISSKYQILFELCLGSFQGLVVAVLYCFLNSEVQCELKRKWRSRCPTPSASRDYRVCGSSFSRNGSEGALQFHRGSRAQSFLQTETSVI
"activity (cAMP) in CHO cells expressing VPAC1, relative to native VIP (fold less active than native VIP) [1]","activity (cAMP) in CHO cells expressing VPAC2, relative to native VIP (fold less active than native VIP) [2]","activity (cAMP) in CHO cells expressing VPAC1, relative to native VIP [3]",Molecule
1.4,1.5,,PB1120 (VIP-ELP1-120 fusion peptide)
,,~11 fold less active than native VIP,PB1046 (M-VIP-ELP1-120 fusion protein) (other) MHSDAVFTDNYTRLRKQMAVKKYLNSILNVPGVGVPGVGVPGGGVPGAGVPGVGVPGVGVPGVGVPGGGVPGAGVPGGGVPGVGVPGVGVPGGGVPGAGVPGVGVPGVGVPGVGVPGGGVPGAGVPGGGVPGVGVPGVGVPGGGVPGAGVPGVGVPGVGVPGVGVPGGGVPGAGVPGGGVPGVGVPGVGVPGGGVPGAGVPGVGVPGVGVPGVGVPGGGVPGAGVPGGGVPGVGVPGVGVPGGGVPGAGVPGVGVPGVGVPGVGVPGGGVPGAGVPGGGVPGVGVPGVGVPGGGVPGAGVPGVGVPGVGVPGVGVPGGGVPGAGVPGGGVPGVGVPGVGVPGGGVPGAGVPGVGVPGVGVPGVGVPGGGVPGAGVPGGGVPGVGVPGVGVPGGGVPGAGVPGVGVPGVGVPGVGVPGGGVPGAGVPGGGVPGVGVPGVGVPGGGVPGAGVPGVGVPGVGVPGVGVPGGGVPGAGVPGGGVPGVGVPGVGVPGGGVPGAGVPGVGVPGVGVPGVGVPGGGVPGAGVPGGGVPGVGVPGVGVPGGGVPGAGVPGVGVPGVGVPGVGVPGGGVPGAGVPGGGVPGVGVPGVGVPGGGVPGAGVPGVGVPGVGVPGVGVPGGGVPGAGVPGGGVPGWP
